Consider 18 molecules from patent US20090208538A1 (ROCKEFELLER UNIVERSITY, published 2009).

B1: cdr2-specific murine T cell receptor of CTL clones 11 and 12 (TCR, V domains shown)
V domain 1: QQQVRQSPQSLTVWEGGTTVLTCSYEDSTFNYFPWYQQFPGEGPALLISILSVSDKKEDGRFTTFFNKREKKLSLHIIDSQPGDSATYFCAASGASGGSNAKLTFGKGTKLSVKS
V domain 2: DSGVVQSPRHIIKEKGGRSVLTCIPISGHSNVVWYQQTLGKELKFLIQHYEKVERDKGFLPSRFSVQQFDDYHSEMNMSALELEDSAMYFCASSLGGWAEQFFGPGTRLTVLE

The target of the first test is T1, HLA-A*0201 (human).
T1 construct: also called HLA-A2.1; HLA A2.1
As to the kind of experiment: iTopia net score.
For the molecule RQHFVYDHV [cdr2 168-176 RQHFVYDHV], the iScore was determined as 0.304.
Turning to ALFKEIFSC [cdr2 424-432 ALFKEIFSC], the iScore came out at 0.546.
Still for that read-out and setting: as for LLHEVDTQY [cdr2 345-353 LLHEVDTQY], the figure is 0.204; as for HLKKTVTML [cdr2 197-205 HLKKTVTML], 0.199; as for LLEEMFLTV [cdr2 290-298 LLEEMFLTV], 0.815.
On the same count and under the same terms, as for ASQQKILSL [cdr2 107-113 ASQQKILSL], the figure is 0.174.

A further test addresses HLA-A*1101 (human). Description: iTopia affinity.
In the case of KQRGISLLH [cdr2 339-347 KQRGISLLH], the ED50 is 22 µM.
Molecule ASQQKILSL [cdr2 107-113 ASQQKILSL] yielded an ED50 of 20 µM.
On the same count and under the same terms, then TQYSALKVK [cdr2 351-359 TQYSALKVK], with 2.8 µM.

In a further test the target is T2, HLA-A*1501 (human).
T2 construct: possibly meant as HLA-B*1501
Description: iTopia affinity.
SQSLLEEMF [cdr2 287-295 SQSLLEEMF] displayed an ED50 of 29 µM.
As to RQHFVYDHV [cdr2 168-176 RQHFVYDHV], the ED50 was 39 µM.
As to ALFKEIFSC [cdr2 424-432 ALFKEIFSC], the ED50 came out at 8.3 µM.
On the same count and under the same terms, then LLHEVDTQY [cdr2 345-353 LLHEVDTQY], with 39 µM; and KQRGISLLH [cdr2 339-347 KQRGISLLH], with 22 µM.
In turn, AVKQRGISL [cdr2 337-345 AVKQRGISL] registered an ED50 of 15 µM.
The same measure, in the same setting: then SFACLKELY [cdr2 157-165 SFACLKELY], with 5.3 µM; and AVQTSRAAA [cdr2 378-386 AVQTSRAAA], with 51 µM; and RARALELEA [cdr2 244-252 RARALELEA], with 48 µM.
Still for that read-out and setting: then QMLQSEHPF [cdr2 259-267 QMLQSEHPF], with 8.3 µM; and ASQQKILSL [cdr2 107-113 ASQQKILSL], with 24 µM.
As for TQYSALKVK [cdr2 351-359 TQYSALKVK], the ED50 stood at 7.6 µM.

A further test concerns the target HLA-A*1101 (human). Description: iTopia off-rate.
Molecule KQRGISLLH [cdr2 339-347 KQRGISLLH] had a t1/2 of 0.44.
On to ASQQKILSL [cdr2 107-113 ASQQKILSL], for which the t1/2 was determined as 2.45.
Still for that read-out and setting: then TQYSALKVK [cdr2 351-359 TQYSALKVK], with 0.76.

Another test deals with HLA-B*0801 (human). Description: iTopia affinity.
Consider HLKKTVTML [cdr2 197-205 HLKKTVTML], for which the ED50 worked out at 37 µM.
Same read-out and setting: as for AVKQRGISL [cdr2 337-345 AVKQRGISL], the figure is 22 µM.

For the next test, the target named is HLA-A*2402 (human). Description: iTopia off-rate.
In turn, SQSLLEEMF [cdr2 287-295 SQSLLEEMF] displayed a t1/2 of 0.24.
The same measure, in the same setting: then KQRGISLLH [cdr2 339-347 KQRGISLLH], with 1.52; and HLKKTVTML [cdr2 197-205 HLKKTVTML], with 0.8; and AVKQRGISL [cdr2 337-345 AVKQRGISL], with 1.6.
Same read-out and setting: then SFACLKELY [cdr2 157-165 SFACLKELY], with 0.5; and QMLQSEHPF [cdr2 259-267 QMLQSEHPF], with 0.25.

The next test concerns the target HLA-A*0101 (human). As to the kind of experiment: iTopia affinity.
The molecule SSPTTPPEY [cdr2 414-422 SSPTTPPEY] showed an ED50 of 130 µM.
In the case of DTQYSALKV [cdr2 350-358 DTQYSALKV], the ED50 was 49 µM.
The same measure, in the same setting: then LLEEMFLTV [cdr2 290-298 LLEEMFLTV], with 21 µM; and SFACLKELY [cdr2 157-165 SFACLKELY], with 6.9 µM.
With EIDEQRTKY [cdr2 439-447 EIDEQRTKY], the ED50 is 31 µM.

In another test the target is HLA-B*0702 (human). Description: iTopia affinity.
HLKKTVTML [cdr2 197-205 HLKKTVTML] yielded an ED50 of 99 µM.
Same read-out and setting: then AVKQRGISL [cdr2 337-345 AVKQRGISL], with 2.4 µM.
The same measure, in the same setting: as for AVQTSRAAA [cdr2 378-386 AVQTSRAAA], the figure is 11 µM.
Same read-out and setting: then RARALELEA [cdr2 244-252 RARALELEA], with 14 µM.

The next test deals with HLA-A*0101 (human). Description: iTopia off-rate.
Regarding SSPTTPPEY [cdr2 414-422 SSPTTPPEY], the t1/2 turned out to be 0.96.
The same measure, in the same setting: then DTQYSALKV [cdr2 350-358 DTQYSALKV], with 0.4; and LLEEMFLTV [cdr2 290-298 LLEEMFLTV], with 0.27; and SFACLKELY [cdr2 157-165 SFACLKELY], with 0.97.
The same measure, in the same setting: as for EIDEQRTKY [cdr2 439-447 EIDEQRTKY], the figure is 1.26.

The target in the next test is T1, HLA-A*0201. As to the kind of experiment: iTopia binding.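 Note: each peptide tested for binding to HLA-A2 molecules immobilized on plates, using a commercial screening kit run per its supplied protocol and reagents.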
Take RQHFVYDHV [cdr2 168-176 RQHFVYDHV]: the “binding vs positive control” value is > 30%.
Still for that read-out and setting: then ALFKEIFSC [cdr2 424-432 ALFKEIFSC], with > 30%; and LLHEVDTQY [cdr2 345-353 LLHEVDTQY], with > 30%; and HLKKTVTML [cdr2 197-205 HLKKTVTML], with > 30%.
Still for that read-out and setting: as for LLEEMFLTV [cdr2 290-298 LLEEMFLTV], the figure is > 30%.
Same read-out and setting: as for ASQQKILSL [cdr2 107-113 ASQQKILSL], the figure is > 30%.

In another test the target is HLA-A*0101 (human). Description: iTopia net score.
SSPTTPPEY [cdr2 414-422 SSPTTPPEY] returned an iScore of 0.05.
Still for that read-out and setting: then DTQYSALKV [cdr2 350-358 DTQYSALKV], with 0.04; and LLEEMFLTV [cdr2 290-298 LLEEMFLTV], with 0.063.
The same measure, in the same setting: then SFACLKELY [cdr2 157-165 SFACLKELY], with 0.137.
Same read-out and setting: as for EIDEQRTKY [cdr2 439-447 EIDEQRTKY], the figure is 0.107.

A further test concerns the target HLA-A*2402 (human). As to the kind of experiment: iTopia net score.
For the molecule SQSLLEEMF [cdr2 287-295 SQSLLEEMF], the iScore turned out to be 0.048.
Still for that read-out and setting: then KQRGISLLH [cdr2 339-347 KQRGISLLH], with 0.184; and HLKKTVTML [cdr2 197-205 HLKKTVTML], with 0.075.
On to AVKQRGISL [cdr2 337-345 AVKQRGISL], for which the iScore is 0.13.
For the molecule SFACLKELY [cdr2 157-165 SFACLKELY], the iScore amounted to 0.157.
QMLQSEHPF [cdr2 259-267 QMLQSEHPF] came in with an iScore of 0.082.

In the next test the target is HLA-B*0801 (human). As to the kind of experiment: iTopia net score.
Turning to HLKKTVTML [cdr2 197-205 HLKKTVTML], the iScore came out at 0.123.
Same read-out and setting: then AVKQRGISL [cdr2 337-345 AVKQRGISL], with 0.139.

The next test has as its target T1, HLA-A*0201. As to the kind of experiment: iTopia off-rate.
In turn, RQHFVYDHV [cdr2 168-176 RQHFVYDHV] yielded a t1/2 of 3.7.
The same measure, in the same setting: then ALFKEIFSC [cdr2 424-432 ALFKEIFSC], with 18.7.
Same read-out and setting: as for LLHEVDTQY [cdr2 345-353 LLHEVDTQY], the figure is 3.5.
Same read-out and setting: then HLKKTVTML [cdr2 197-205 HLKKTVTML], with 2.5; and LLEEMFLTV [cdr2 290-298 LLEEMFLTV], with 5.9; and ASQQKILSL [cdr2 107-113 ASQQKILSL], with 3.4.

The target in another test is HLA-A*2402 (human). As to the kind of experiment: iTopia affinity.
As to SQSLLEEMF [cdr2 287-295 SQSLLEEMF], the ED50 is 14 µM.
KQRGISLLH [cdr2 339-347 KQRGISLLH] returned an ED50 of 6.9 µM.
Molecule HLKKTVTML [cdr2 197-205 HLKKTVTML] returned an ED50 of 89 µM.
On the same count and under the same terms, as for AVKQRGISL [cdr2 337-345 AVKQRGISL], the figure is 20 µM.
On the same count and under the same terms, then SFACLKELY [cdr2 157-165 SFACLKELY], with 1.4 µM; and QMLQSEHPF [cdr2 259-267 QMLQSEHPF], with 53 µM.

In another test the target is HLA-A*0301 (human). Description: iTopia affinity.
Consider TQYSALKVK [cdr2 351-359 TQYSALKVK], for which the ED50 came out at 7.5 µM.

Another test deals with T2, HLA-A*1501. Description: iTopia net score.
In turn, SQSLLEEMF [cdr2 287-295 SQSLLEEMF] returned an iScore of 0.062.
Still for that read-out and setting: as for RQHFVYDHV [cdr2 168-176 RQHFVYDHV], the figure is 0.088; as for ALFKEIFSC [cdr2 424-432 ALFKEIFSC], 0.053; as for LLHEVDTQY [cdr2 345-353 LLHEVDTQY], 0.121.
Still for that read-out and setting: as for KQRGISLLH [cdr2 339-347 KQRGISLLH], the figure is 0.163; as for AVKQRGISL [cdr2 337-345 AVKQRGISL], 0.16.
Same read-out and setting: then SFACLKELY [cdr2 157-165 SFACLKELY], with 0.132.
As to AVQTSRAAA [cdr2 378-386 AVQTSRAAA], the iScore came out at 0.062.
The same measure, in the same setting: then RARALELEA [cdr2 244-252 RARALELEA], with 0.118.
The same measure, in the same setting: then QMLQSEHPF [cdr2 259-267 QMLQSEHPF], with 0.257.
The same measure, in the same setting: then ASQQKILSL [cdr2 107-113 ASQQKILSL], with 0.092.
Molecule TQYSALKVK [cdr2 351-359 TQYSALKVK] had an iScore of 0.181.

In the next test the target is HLA-B*0702 (human). As to the kind of experiment: iTopia net score.
Consider HLKKTVTML [cdr2 197-205 HLKKTVTML], for which the iScore came out at 0.022.
Still for that read-out and setting: then AVKQRGISL [cdr2 337-345 AVKQRGISL], with 0.293.
Same read-out and setting: then AVQTSRAAA [cdr2 378-386 AVQTSRAAA], with 0.153; and RARALELEA [cdr2 244-252 RARALELEA], with 0.08.

The target of the next test is HLA-A2.1/cdr2(290-298) complex (human). Description: cell-based or functional assay.
Consider B1, for which the “IFN-γ release, ELISA” value was determined as 20 fold above background.

The target in a further test is HLA-B*0702 (human). Description: iTopia off-rate.
HLKKTVTML [cdr2 197-205 HLKKTVTML] came in with a t1/2 of 0.11.
Still for that read-out and setting: as for AVKQRGISL [cdr2 337-345 AVKQRGISL], the figure is 1.18.
Same read-out and setting: then AVQTSRAAA [cdr2 378-386 AVQTSRAAA], with 0.9; and RARALELEA [cdr2 244-252 RARALELEA], with 0.47.

In a further test the target is HLA-A*0301 (human). Description: iTopia net score.
Regarding TQYSALKVK [cdr2 351-359 TQYSALKVK], the iScore amounted to 0.27.

Another test has as its target HLA-A*1101 (human). As to the kind of experiment: iTopia net score.
The molecule KQRGISLLH [cdr2 339-347 KQRGISLLH] had an iScore of 0.089.
The same measure, in the same setting: then ASQQKILSL [cdr2 107-113 ASQQKILSL], with 0.19.
On the same count and under the same terms, as for TQYSALKVK [cdr2 351-359 TQYSALKVK], the figure is 0.276.

For a further test, the target named is HLA-A*0301 (human). Description: iTopia off-rate.
In turn, TQYSALKVK [cdr2 351-359 TQYSALKVK] had a t1/2 of 1.48.

The target of a further test is T1, HLA-A*0201. Description: iTopia affinity.
RQHFVYDHV [cdr2 168-176 RQHFVYDHV] came in with an ED50 of 6 µM.
As for ALFKEIFSC [cdr2 424-432 ALFKEIFSC], the ED50 stood at 30 µM.
Same read-out and setting: then LLHEVDTQY [cdr2 345-353 LLHEVDTQY], with 7 µM; and HLKKTVTML [cdr2 197-205 HLKKTVTML], with 10 µM; and LLEEMFLTV [cdr2 290-298 LLEEMFLTV], with 0.6 µM.
Still for that read-out and setting: then ASQQKILSL [cdr2 107-113 ASQQKILSL], with 8 µM.
